According to patent US20090069215A1, “Acylated Single Chain Insulin” (Novo Nordisk A/S, priority 2006, published 2009):

Assays:
[1] = target: purified recombinant human insulin receptor-exon 11 (human) (UniProt P06213); assay: assay (I): SPA competition, displacement of A14 Tyr[125I]-human insulin from recombinant human insulin receptor; reference human insulin
[2] = target: human insulin receptor (Homo sapiens, UniProt P06213); assay: Insulin receptor binding, SPA antibody capture assay (assay (I)); conditions: recombinant human insulin receptor - exon 11, A14 Tyr[125I]-human insulin tracer, human insulin = 100%
Sequence of human insulin receptor (P06213 28-746 isoform P06213-2 limits assumed): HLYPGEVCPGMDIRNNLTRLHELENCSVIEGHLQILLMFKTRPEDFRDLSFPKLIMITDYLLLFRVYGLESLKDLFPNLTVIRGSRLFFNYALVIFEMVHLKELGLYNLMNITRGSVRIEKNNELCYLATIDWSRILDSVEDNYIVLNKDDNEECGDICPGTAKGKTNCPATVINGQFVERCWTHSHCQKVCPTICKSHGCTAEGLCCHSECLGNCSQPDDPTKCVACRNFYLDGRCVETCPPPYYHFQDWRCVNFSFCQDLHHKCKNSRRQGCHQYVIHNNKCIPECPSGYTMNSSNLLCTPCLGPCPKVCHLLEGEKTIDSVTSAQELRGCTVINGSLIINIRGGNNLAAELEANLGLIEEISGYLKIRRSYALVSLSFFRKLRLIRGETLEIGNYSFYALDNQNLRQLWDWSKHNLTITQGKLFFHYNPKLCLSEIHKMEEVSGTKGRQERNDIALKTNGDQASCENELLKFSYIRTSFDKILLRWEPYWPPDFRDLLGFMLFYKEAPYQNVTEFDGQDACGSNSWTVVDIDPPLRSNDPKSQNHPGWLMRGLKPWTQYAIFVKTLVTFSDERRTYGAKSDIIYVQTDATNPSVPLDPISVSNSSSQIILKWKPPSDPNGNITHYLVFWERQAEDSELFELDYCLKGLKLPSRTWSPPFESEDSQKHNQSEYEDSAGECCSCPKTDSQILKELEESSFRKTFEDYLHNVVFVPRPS
Sequence of human insulin receptor (P06213 763-1382 partner limits assumed): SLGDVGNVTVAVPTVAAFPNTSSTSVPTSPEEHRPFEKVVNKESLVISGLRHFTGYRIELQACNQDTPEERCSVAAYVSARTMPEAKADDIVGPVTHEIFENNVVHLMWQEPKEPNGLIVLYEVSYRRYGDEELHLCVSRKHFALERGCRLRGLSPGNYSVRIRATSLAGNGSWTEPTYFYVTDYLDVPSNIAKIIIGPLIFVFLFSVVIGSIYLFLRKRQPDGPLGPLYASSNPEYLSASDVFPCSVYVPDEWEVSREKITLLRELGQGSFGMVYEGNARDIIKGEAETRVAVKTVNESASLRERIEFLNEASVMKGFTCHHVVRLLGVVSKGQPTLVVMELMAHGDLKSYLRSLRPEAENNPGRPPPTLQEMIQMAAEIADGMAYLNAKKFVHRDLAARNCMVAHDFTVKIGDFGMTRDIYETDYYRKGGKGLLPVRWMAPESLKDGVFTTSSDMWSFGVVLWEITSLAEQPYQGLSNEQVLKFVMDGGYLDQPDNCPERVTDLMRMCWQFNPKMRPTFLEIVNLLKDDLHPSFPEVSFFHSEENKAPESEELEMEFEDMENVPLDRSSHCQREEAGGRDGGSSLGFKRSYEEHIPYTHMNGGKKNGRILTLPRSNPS
Description: Insulin Receptor Binding of the Acylated, Single-Chain Insulin
The affinity of the acylated, single-chain insulins for the human insulin receptor can be determined by a SPA assay (Scintillation Proximity Assay) microtiterplate antibody capture assay. SPA-PVT antibody-binding beads, anti-mouse reagent (Amersham Biosciences, Cat No. PRNQ0017) are mixed with 25 ml of binding buffer (100 mM HEPES pH 7.8; 100 mM sodium chloride, 10 mM MgSO4, 0.025% Tween-20). Reagent mix for a single Packard Optiplate (Packard No. 6005190) is composed of 2.4 μl of a 1:5000 diluted purified recombinant human insulin receptor—exon 11, an amount of a stock solution of A14 Tyr[125I]-human insulin corresponding to 5000 cpm per 100 μl of reagent mix, 12 μl of a 1:1000 dilution of F12 antibody, 3 ml of SPA-beads and binding buffer to a total of 12 ml. A total of 100 μl is then added and a dilution series is made from appropriate samples. To the dilution series is then added 100 μl of reagent mix and the samples are incubated for 16 hours while gently shaken. The phases are then separated by centrifugation for 1 min and the plates counted in a Topcounter. The binding data are fitted using the nonlinear regression algorithm in the GraphPad Prism 2.01 (GraphPad Software, San Diego, Calif.).

Sequence of purified recombinant human insulin receptor-exon 11 (human) (P06213 other isoform, or with tags, fused parts or gaps limits assumed, form in doubt): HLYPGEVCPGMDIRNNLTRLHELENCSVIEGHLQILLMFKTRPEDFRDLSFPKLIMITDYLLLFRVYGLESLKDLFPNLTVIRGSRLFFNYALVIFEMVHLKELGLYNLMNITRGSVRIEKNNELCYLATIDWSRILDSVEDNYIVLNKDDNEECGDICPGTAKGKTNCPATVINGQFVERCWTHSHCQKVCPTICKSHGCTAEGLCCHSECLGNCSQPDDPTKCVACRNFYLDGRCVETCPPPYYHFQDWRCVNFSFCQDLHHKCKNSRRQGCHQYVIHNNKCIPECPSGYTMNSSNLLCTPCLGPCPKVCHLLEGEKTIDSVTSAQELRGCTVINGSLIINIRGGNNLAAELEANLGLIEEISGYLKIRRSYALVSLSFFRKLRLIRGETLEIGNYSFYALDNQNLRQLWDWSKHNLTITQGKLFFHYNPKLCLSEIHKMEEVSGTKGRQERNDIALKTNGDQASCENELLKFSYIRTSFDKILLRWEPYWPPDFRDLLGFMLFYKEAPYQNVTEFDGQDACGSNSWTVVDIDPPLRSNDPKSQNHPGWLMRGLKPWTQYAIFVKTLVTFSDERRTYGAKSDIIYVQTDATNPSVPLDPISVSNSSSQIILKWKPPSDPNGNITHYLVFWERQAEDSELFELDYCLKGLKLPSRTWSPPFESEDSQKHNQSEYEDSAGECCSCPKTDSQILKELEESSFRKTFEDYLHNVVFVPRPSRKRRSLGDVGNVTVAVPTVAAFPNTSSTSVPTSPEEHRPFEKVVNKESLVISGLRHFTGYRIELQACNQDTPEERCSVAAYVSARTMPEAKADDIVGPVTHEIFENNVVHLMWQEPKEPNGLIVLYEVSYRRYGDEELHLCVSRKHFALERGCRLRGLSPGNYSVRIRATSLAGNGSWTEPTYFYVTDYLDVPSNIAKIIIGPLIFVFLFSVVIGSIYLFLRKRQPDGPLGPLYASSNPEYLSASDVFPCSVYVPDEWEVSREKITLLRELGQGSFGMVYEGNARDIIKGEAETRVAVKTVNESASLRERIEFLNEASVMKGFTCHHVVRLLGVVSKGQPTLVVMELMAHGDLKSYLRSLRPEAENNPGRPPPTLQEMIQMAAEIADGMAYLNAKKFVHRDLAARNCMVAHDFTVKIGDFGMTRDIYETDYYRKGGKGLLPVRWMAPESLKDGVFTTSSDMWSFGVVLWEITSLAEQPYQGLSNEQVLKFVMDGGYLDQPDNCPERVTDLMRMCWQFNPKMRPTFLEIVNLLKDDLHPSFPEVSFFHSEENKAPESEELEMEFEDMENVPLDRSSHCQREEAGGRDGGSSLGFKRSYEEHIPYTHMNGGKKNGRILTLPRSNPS

| Substance | insulin receptor binding relative to that of human insulin [1] [%] | insulin receptor binding relative to that of human insulin [2] [%] |
| --- | --- | --- |
| B(1-29)-B22K((eps)hexadecandioyl-gGlu)-B29H-TGLGSGR-A(1-21)-A18Q-A21G Human insulin (from UniProt P01308 25-53; P01308 90-110) (ligand) | 46 | – |
| B(1-29)-B22K((eps)hexadecandioyl-gGlu)-B29H-TGLGSGR-A(1-21)-A18Q-A21G Human insulin [Example 4] | – | 46 |
| B(1-29)-B22K((eps)hexadecandioyl-gGlu)-B29Q-TGLGSGR-A(1-21)-A18Q-A21G Human insulin [Example 5] | – | 154 |
| B(1-29)-B22K((eps)myristoyl)-B29A-VGLSSGQ-A(1-21)-A18Q Human Insulin [Example 1] | – | 46 |
| B(1-29)-B22K(N(eps)heptadecandioyl)-B29H-TGLGSGR-A(1-21)-A18Q-A21G Human insulin [Example 7] | – | 119 |
| B(1-29)-B22K(N(eps)heptadecandioyl-g-L-Glu)-B29H-TGLGSGR-A(1-21)-A18Q-A21G Human insulin [Example 8] | – | 53 |
| B(1-29)-B22K(N(eps)hexadecandioyl-g-L-Glu-amide)-B29H-TGLGSGR-A(1-21)-A18Q-A21G Human insulin [Example 6] | – | 105 |
| B(1-29)-B22K(N(eps)hexadecandioyl-gGlu)-B29A-VGLSSGQ-A(1-21)-A18Q Human Insulin [Example 3] | – | 64 |
| B(1-29)-B22K(N(eps)octadecandioyl)-B29A-VGLSSGQ-A(1-21)-A18Q Human Insulin [Example 2] | – | 16 |

Further lines, with some results ahead:

| insulin receptor binding relative to that of human insulin [1] [%] | Substance | insulin receptor binding relative to that of human insulin [2] [%] |
| --- | --- | --- |
| 154 | B(1-29)-B22K((eps)hexadecandioyl-gGlu)-B29Q-TGLGSGR-A(1-21)-A18Q-A21G Human insulin (from UniProt P01308 25-53; P01308 90-110) (ligand) | – |
| 46 | B(1-29)-B22K((eps)myristoyl)-B29A-VGLSSGQ-A(1-21)-A18Q Human Insulin (from UniProt P01308 25-53; P01308 90-110) (ligand) | – |
| 119 | B(1-29)-B22K(N(eps)heptadecandioyl)-B29H-TGLGSGR-A(1-21)-A18Q-A21G Human insulin (from UniProt P01308 25-53; P01308 90-110) (ligand) | – |
| 53 | B(1-29)-B22K(N(eps)heptadecandioyl-g-L-Glu)-B29H-TGLGSGR-A(1-21)-A18Q-A21G Human insulin (from UniProt P01308 25-53; P01308 90-110) (ligand) | – |
| 105 | B(1-29)-B22K(N(eps)hexadecandioyl-g-L-Glu-amide)-B29H-TGLGSGR-A(1-21)-A18Q-A21G Human insulin (from UniProt P01308 25-53; P01308 90-110) (ligand) | – |
| 64 | B(1-29)-B22K(N(eps)hexadecandioyl-gGlu)-B29A-VGLSSGQ-A(1-21)-A18Q Human Insulin (from UniProt P01308 25-53; P01308 90-110) (ligand) | – |
| 16 | B(1-29)-B22K(N(eps)octadecandioyl)-B29A-VGLSSGQ-A(1-21)-A18Q Human Insulin (from UniProt P01308 25-53; P01308 90-110) (ligand) | – |
